The labels stand for the following.
B1: YES (endogenous, from RA FLS lysates) (enzyme)
chain: not shown

The target of assay [1] is T1, C-terminally HA-tagged wild type (WT) RPTPκ (NM 008983.2), full-length, immunoprecipitated from COS-1 cells (UniProt P35822 26-1457).
T1 construct: It was held on anti-HA immunoprecipitate beads in the assay; also called HA-tagged WT RPTPκ; full-length RPTPk; not shown: C-terminal HA tag
T1 sequence (looked up): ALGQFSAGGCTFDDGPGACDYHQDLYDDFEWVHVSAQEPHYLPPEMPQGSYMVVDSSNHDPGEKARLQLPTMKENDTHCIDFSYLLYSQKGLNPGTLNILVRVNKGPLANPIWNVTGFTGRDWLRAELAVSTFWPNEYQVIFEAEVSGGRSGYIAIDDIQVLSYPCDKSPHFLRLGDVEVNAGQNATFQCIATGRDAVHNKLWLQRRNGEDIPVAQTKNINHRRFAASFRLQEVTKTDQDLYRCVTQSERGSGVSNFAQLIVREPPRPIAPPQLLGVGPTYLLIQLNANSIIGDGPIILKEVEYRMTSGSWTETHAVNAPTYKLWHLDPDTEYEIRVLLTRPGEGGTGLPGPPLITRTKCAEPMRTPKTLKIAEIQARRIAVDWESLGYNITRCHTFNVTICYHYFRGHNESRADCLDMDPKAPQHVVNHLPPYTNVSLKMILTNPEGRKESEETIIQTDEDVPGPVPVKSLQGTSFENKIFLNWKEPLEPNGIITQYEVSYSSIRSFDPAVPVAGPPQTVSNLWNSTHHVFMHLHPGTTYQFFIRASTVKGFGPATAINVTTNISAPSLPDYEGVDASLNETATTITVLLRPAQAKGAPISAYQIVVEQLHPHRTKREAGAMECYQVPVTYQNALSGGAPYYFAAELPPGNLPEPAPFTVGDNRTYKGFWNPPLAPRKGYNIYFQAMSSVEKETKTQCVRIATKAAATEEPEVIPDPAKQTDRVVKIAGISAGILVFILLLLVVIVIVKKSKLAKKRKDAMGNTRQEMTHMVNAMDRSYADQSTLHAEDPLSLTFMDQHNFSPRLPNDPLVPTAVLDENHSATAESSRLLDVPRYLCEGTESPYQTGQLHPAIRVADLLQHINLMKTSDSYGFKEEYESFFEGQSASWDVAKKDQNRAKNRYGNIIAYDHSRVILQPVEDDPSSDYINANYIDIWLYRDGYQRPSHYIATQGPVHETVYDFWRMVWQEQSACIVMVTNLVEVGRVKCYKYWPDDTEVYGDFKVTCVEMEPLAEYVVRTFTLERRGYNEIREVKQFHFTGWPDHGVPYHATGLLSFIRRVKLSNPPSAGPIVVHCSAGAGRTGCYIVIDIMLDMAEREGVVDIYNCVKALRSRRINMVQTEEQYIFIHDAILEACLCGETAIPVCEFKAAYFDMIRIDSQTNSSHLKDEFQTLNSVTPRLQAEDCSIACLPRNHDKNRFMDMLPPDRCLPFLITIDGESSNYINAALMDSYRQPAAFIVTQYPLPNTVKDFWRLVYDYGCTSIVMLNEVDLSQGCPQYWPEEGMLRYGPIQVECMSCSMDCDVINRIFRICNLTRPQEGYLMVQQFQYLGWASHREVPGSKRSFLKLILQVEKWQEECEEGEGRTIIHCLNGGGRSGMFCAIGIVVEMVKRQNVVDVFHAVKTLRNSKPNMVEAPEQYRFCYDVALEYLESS
Briefly: pull-down of RA FLS lysates with immunoprecipitated HA-tagged RPTPκ, Western blotting. As to the method: In vitro Pull-Down Assay. HA-tagged WT RPTPκ was overexpressed in COS-1 cells. Cells were lysed in THE buffer (20 mM Tris-HCl pH 7.5, 150 mM NaCl, 5 mM EDTA pH 8.0 and 1% NP-40) containing 10 μg/mL aprotinin, 10 μg/mL leupeptin, 10 μg/mL soybean trypsin inhibitor, and 1 mM phenylmethylsulfonyl fluoride. RPTPκ was immunoprecipitated using anti-HA antibody (Covance, Princeton, N.J.). RA FLS were lysed in RIPA buffer containing 10 μg/mL aprotinin, 10 μg/mL leupeptin, 10 μg/mL soybean trypsin inhibitor, 1 mM phenylmethylsulfonyl fluoride and 5 mM iodoacetamide. Lysates were treated with 10 mM dithiothreitol for 10 min, and then diluted 10-fold in buffer containing 25 mM Tris-HCl pH 7.6, 150 mM NaCl and 1 mM ethylenediaminetetraacetic acid. Immunoprecipitates were incubated with RA FLS lysates for 3 hr at 4° C., washed in the dilution buffer, and subjected to Western blotting.
We next investigated if RPTPk directly interacts with and/or dephosphorylates SFKs. HA-tagged RPTPκ was immunoprecipitated from COS-1 cells and incubated in vitro with RA FLS lysates, and pull-down was subjected to Western blotting. Both full-length RPTPk immunoprecipitated from COS-1 cells and a recombinant substrate-trapping mutant of the RPTPk catalytic domain (iPTPk-D1051A) precipitated SRC from RA FLS lysates in pull-down assays, but not YES or FYN (SFKs also expressed in FLS).
(In western blotting, separated proteins are transferred to a membrane and probed.)

Assay [2] deals with B1. Briefly: substrate-trapping pull-down of RA FLS lysates with agarose-bound S-tagged iPTPκ-D1051A, Western blotting. As to the method: (§1) Accordingly, cDNA (codon optimized for expression in E. coli [Genscript, Piscataway, N.J.]) encoding a substrate-trapping mutant of the catalytic domain of RPTPκ (iPTPK-D1051A, aa865-1156 of NP_002835.2) was cloned into the pET30c vector. S-tagged-iPTPK-D1051A was isolated from E. coli using S-protein agarose (EMD Millipore). RA FLS were lysed in RIPA buffer containing 10 μg/mL aprotinin, 10 μg/mL leupeptin, 10 μg/mL soybean trypsin inhibitor, 1 mM phenylmethylsulfonyl fluoride and 5 mM iodoacetamide. Lysates were treated with 10 mM dithiothreitol for 10 min, and then diluted 10-fold in buffer containing 25 mM Tris-HCl pH 7.6, 150 mM NaCl and 1 mM ethylenediaminetetraacetic acid. Agarose-bound S-tagged-iPTPκ-D1051A was incubated with RA FLS lysates for 3 hr at 4° C., washed in the dilution buffer, and subjected to Western blotting.

In assay [3] the target is FYN (endogenous, from RA FLS lysates) (human, UniProt P06241 2-537, limits assumed). The assay is described as above. As for the experimental part:
as §1

Chain of FYN (endogenous, from RA FLS lysates) (P06241 2-537 limits assumed): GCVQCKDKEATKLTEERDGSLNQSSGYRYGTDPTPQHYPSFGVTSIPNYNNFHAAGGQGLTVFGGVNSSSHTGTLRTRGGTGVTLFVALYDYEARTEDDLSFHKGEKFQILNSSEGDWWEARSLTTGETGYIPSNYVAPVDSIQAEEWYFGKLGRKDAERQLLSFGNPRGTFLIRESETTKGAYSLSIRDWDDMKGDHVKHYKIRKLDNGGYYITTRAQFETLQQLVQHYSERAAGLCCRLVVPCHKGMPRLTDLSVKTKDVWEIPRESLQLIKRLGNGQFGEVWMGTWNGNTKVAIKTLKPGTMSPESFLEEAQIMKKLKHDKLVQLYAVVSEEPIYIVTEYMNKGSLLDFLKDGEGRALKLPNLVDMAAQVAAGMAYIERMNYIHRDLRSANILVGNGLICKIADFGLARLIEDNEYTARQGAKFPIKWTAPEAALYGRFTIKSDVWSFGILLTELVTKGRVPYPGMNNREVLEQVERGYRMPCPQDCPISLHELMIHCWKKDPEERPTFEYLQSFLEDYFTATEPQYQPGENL

Regarding B1, in assay [1], the binding result is “no binding”.

B2: S-tagged-iPTPκ-D1051A, substrate-trapping mutant of the catalytic domain of RPTPκ (aa865-1156 of NP_002835.2) (enzyme, not shown: small tags and cut ends)
chain: HPAIRVADLLQHINLMKTSDSYGFKEEYESFFEGQSASWDVAKKDQNRAKNRYGNIIAYDHSRVILQPVEDDPSSDYINANYIDGYQRPSHYIATQGPVHETVYDFWRMIWQEQSACIVMVTNLVEVGRVKCYKYWPDDTEVYGDFKVTCVEMEPLAEYVVRTFTLERRGYNEIREVKQFHFTGWPAHGVPYHATGLLSFIRRVKLSNPPSAGPIVVHCSAGAGRTGCYIVIDIMLDMAEREGVVDIYNCVKALRSRRINMVQTEEQYIFIHDAILEACLCGETAIPVCEFK
notes: Numbering counts on NP_002835.2, which may differ from the canonical UniProt isoform; also called iPTPk-D1051A; iPTPK-D1051A
With B2, the binding result in assay [2] and in assay [3] was “no binding” in each case.

(Values after US20160122768A1 (LA JOLLA INSTITUTE FOR ALLERGY AND IMMUNOLOGY, published 2016).)
